Data: US20210324068A1 (H LUNDBECK A S, published 2021)

Target: T1, Pituitary Adenylate Cyclase-Activating Polypeptide 38 (PACAP38) (Homo sapiens, not fully specified; C-terminal lysine is amidated; N-terminally or C-terminally biotinylated in the HTRF binding assay and N-terminally biotinylated in the PC-12 cell binding assay)
T1 construct: synthetic peptide (American Peptide; AnaSpec for biotinylated forms); also called human PACAP38; PACAP 1-38
T1 peptide: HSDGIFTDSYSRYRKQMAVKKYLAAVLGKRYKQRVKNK
Assay: SPR ProteOn, Ab immobilized

Kd: 0.027 nM
koff: 1e-05 s⁻¹
B1: Ab22 (antibody, V domains shown)
VH: QEQLVESGGGLVQPEGSLTLTCTASGFDFSSNAMCWVRQAPGKGLEWIGSIYNADGKNYYAIWAKGRFTISRTSSTTVTLQMTSLTAADTATYFCARDFDLWGQGTLVTVSS
VL: AAVLTQTPSPVSAAVGGTVTINCQSSQSVYDNDWLAWFQQKPGQPPKLLIYLTSTLASGVPSRFSGSGSGTQFTLTISGVQCDDAATYYCLGGYDEDGDTHVFGGGTEVVVKR
